In patent publication US20240400635A1:

Target: FGF receptor/BKL complex (human) (UniProt Q86Z14)
Test: cell-based or functional assay

FGF receptor/BKL complex (human), sequence (Q86Z14 whole entry, one chain of several): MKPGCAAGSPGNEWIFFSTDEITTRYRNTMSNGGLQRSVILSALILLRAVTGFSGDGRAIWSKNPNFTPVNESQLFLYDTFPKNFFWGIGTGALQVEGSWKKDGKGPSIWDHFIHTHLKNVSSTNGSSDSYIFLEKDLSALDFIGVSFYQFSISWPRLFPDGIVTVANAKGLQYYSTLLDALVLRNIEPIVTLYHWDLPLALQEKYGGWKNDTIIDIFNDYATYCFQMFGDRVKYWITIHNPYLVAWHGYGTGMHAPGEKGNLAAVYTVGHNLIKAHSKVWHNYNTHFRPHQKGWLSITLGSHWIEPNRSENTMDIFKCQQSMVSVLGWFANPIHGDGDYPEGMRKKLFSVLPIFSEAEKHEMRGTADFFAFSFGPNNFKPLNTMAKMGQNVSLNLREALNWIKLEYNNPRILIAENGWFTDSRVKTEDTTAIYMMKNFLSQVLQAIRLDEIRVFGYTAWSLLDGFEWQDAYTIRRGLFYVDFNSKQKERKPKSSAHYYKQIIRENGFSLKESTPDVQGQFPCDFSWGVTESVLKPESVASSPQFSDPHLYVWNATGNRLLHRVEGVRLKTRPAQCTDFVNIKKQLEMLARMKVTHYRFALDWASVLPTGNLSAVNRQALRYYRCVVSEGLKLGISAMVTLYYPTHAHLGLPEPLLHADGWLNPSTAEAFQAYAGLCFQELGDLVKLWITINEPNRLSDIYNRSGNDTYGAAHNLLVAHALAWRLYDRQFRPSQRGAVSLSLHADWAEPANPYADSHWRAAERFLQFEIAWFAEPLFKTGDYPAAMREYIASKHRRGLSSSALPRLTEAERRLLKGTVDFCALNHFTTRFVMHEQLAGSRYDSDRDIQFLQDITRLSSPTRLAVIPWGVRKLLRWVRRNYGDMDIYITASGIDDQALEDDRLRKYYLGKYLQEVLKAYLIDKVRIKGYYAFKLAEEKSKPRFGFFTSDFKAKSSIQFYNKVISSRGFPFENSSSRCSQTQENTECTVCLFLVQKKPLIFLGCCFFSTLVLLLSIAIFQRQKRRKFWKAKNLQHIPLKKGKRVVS

Met-FGF21 (Comparator) SEQ ID NO: 36 (from UniProt Q9NSA1 29-209) (ligand)
FGF1 receptor potency [EC50] nM 0.1% HSA: 0.44 nM
FGF21 receptor potency [EC50] nM 0% HSA: 0.52 nM

S{Beta-180}-[2-[2-[[2-[2-[2-[[2-[2-[2-[[(4S)-4-carboxy-4-(17-carboxyheptadecanoyl-amino)butanoyl]amino]ethoxy]ethoxy]acetyl]amino]ethoxy]ethoxy]acetyl]amino]-ethylamino]-2-oxoethyl]-Ala[Gln121,Leu168,Cys180]FGF21(1-181) (from UniProt Q9NSA1 28-209) (ligand)
FGF1 receptor potency [EC50] nM 0.1% HSA: 10.1 nM
FGF21 receptor potency [EC50] nM 0% HSA: 2.5 nM
